Data on 9 substances can be found in patent US20240132578A1.

A value given as a limit tells only on which side of the number the result lay.

Common to all, as to assay: cell-based or functional assay
In assay [1] the target is HIV-1 Env of pseudovirus MGRM-G-014 (HIV-1).
For assay [2], the target named is HIV-1 Env of isolate MGRM-A-001 (clade A pseudovirus) (HIV-1).
The target in assay [3] is HIV-1 Env of isolate MGRM-A-006 (clade A pseudovirus) (HIV-1).
In assay [4] the target is HIV-1 Env of isolate MGRM-A-003 (clade A pseudovirus) (HIV-1).
Assay [5] has as its target HIV-1 93IN905 envelope (Env) on pseudovirus (HIV-1).
Assay [6] addresses HIV-1 MGRM-AG-001 Env (pseudovirus) (HIV-1).
In assay [7] the target is HIV-1 MGRM-G-009 Env (pseudovirus) (HIV-1).
The target in assay [8] is HIV-1 MGRM-AG-011 Env (pseudovirus) (HIV-1).
Assay [9] concerns the target HIV-1 Env of pseudovirus MGRM-F1-014 (clade F) (HIV-1).
Assay [10] addresses HIV-1 Env of isolate TRO.11 (Acute), clade B (HIV-1).
Assay [11] concerns the target HIV-1 Env of pseudovirus MGRM-F1-006 (clade F) (HIV-1).
For assay [12], the target named is HIV-1 Env of isolate 92RW008 (clade A pseudovirus) (HIV-1).
Assay [13] has as its target HIV-1 Env of isolate 94KE105 (listed under clade A; pseudovirus) (HIV-1).
Assay [14] has as its target HIV-1 92UG005 envelope (Env) on pseudovirus (HIV-1).
Assay [15] deals with HIV-1 envelope glycoprotein (Env) of isolate MGRM-C-023 (HIV-1).
Assay [16] has as its target HIV-1 Env of isolate TRJ0.58 (Acute), clade B (HIV-1).
Assay [17] has as its target HIV-1 Env of pseudovirus MGRM-F1-010 (clade F) (HIV-1).
In assay [18] the target is HIV-1 MGRM-AE-008 Env (pseudovirus) (HIV-1).
Assay [19] has as its target HIV-1 MGRM-D-018 Env (HIV-1).
In assay [20] the target is HIV-1 MGRM-C-026 Env (HIV-1).
Assay [21] concerns the target HIV-1 MGRM-C-027 Env (HIV-1).
Assay [22] concerns the target HIV-1 92TH021 Env (HIV-1).
Assay [23] concerns the target HIV-1 Env of isolate MGRM-AE-002 (pseudovirus) (HIV-1).
In assay [24] the target is HIV-1 JR-CSF Env S393A (HIV-1 (isolate JR-CSF)) (UniProt P20871).
Assay [25] deals with HIV-1 envelope glycoprotein (Env) of isolate 92UG031, subtype A (HIV-1).
Assay [26] has as its target HIV-1 envelope glycoprotein (Env) of isolate MGRM-Chronic-B-008, on pseudovirus (HIV-1).
The target in assay [27] is HIV-1 envelope glycoprotein (Env) of isolate 92WR020, subtype A (HIV-1).
For assay [28], the target named is HIV-1 envelope glycoprotein (Env) of isolate MGRM-Chronic-B-017, on pseudovirus (HIV-1).
For assay [29], the target named is HIV-1 Env of isolate MGRM-F1-018 (pseudovirus) (HIV-1).
Assay [30] addresses HIV-1 Env of isolate MGRM-F1-017 (pseudovirus) (HIV-1).
The target of assay [31] is HIV-1 envelope glycoprotein (Env) of isolate 92RW008, subtype A (HIV-1).
For assay [32], the target named is HIV-1 envelope glycoprotein (Env) of isolate MGRM-Chronic-B-024, on pseudovirus (HIV-1).
For assay [33], the target named is HIV-1 JR-CSF Env R419A (HIV-1 (isolate JR-CSF)) (UniProt P20871).

1443_C16 (PG16) (TCN-116) (antibody), sequence (VH): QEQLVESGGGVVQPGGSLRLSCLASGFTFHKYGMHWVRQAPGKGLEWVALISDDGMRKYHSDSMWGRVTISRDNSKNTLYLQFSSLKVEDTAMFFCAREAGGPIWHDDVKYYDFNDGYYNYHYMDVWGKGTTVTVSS
1443_C16 (PG16) (TCN-116) (antibody), sequence (VL): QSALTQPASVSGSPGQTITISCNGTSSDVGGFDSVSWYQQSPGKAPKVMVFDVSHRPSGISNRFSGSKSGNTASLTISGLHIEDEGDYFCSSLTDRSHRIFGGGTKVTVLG

Regarding 4E10 (antibody), the IC50 (µg/ml), pseudovirus neutralization stood at 13.7 µg/mL in [1]; 15.1 µg/mL in [2]; 9.87 µg/mL in [3]; 5.94 µg/mL in [4]; 1.12 µg/mL in assay [6]; 1.34 µg/mL in [7]. Further, the IC50 (µg/ml), pseudovirus neutralization in assay [8] is 1.36 µg/mL; in assay [10] it was 1.39 µg/mL; in assay [12], 14.5 µg/mL; in assay [13] it was 7.63 µg/mL; in assay [15] it was 1.95 µg/mL; in [16] it was 11.9 µg/mL. For the same substance, in [18], the IC50 (µg/ml), pseudovirus neutralization was 0.94 µg/mL. Besides, the neutralization IC50 in assay [5] came to 1.55 µg/mL; in assay [14], 8.86 µg/mL. The values for the IC50 in assay [9], in assay [11] and in assay [17] were 7.36 µg/mL, 1.01 µg/mL and 3.69 µg/mL, respectively.

Turning to 1496_C09 (PG9) (TCN-109) (antibody), the IC50 (µg/ml), pseudovirus neutralization was 6.32 µg/mL in assay [1]; 0.65 µg/mL in assay [4]; 8.83 µg/mL in assay [6]; 4.9 µg/mL in [7]; 0.01 µg/mL in assay [8]; 5.43 µg/mL in assay [10]. Also, the IC50 (µg/ml), pseudovirus neutralization worked out at 0.01 µg/mL in [12]; 29.6 µg/mL in [13]; 0.51 µg/mL in assay [15]; 0.43 µg/mL in assay [16]; 10.6 µg/mL in [18]. Besides, the IC50, pseudovirus neutralization was determined as 2.04 µg/mL in assay [19], 0.113 µg/mL in [20], 2.45 µg/mL in assay [21] and 0.103 µg/mL in [22]. The values for the IC50 in [9], in assay [11] and in assay [17] were 0.01 µg/mL, 1.45 µg/mL and 0.03 µg/mL, respectively. In assay [23], this substance had an IC50 (µg/mL), pseudovirus neutralization of 0.04 µg/mL.

Turning to b12 (antibody), the IC50 (µg/ml), pseudovirus neutralization in assay [1] was over 50 µg/mL; in [2], over 50 µg/mL; in assay [3], 13.6 µg/mL; in assay [4] it was over 50 µg/mL; in assay [6], 11.9 µg/mL; in assay [7], over 50 µg/mL. Also, the IC50 (µg/ml), pseudovirus neutralization in [8] was over 50 µg/mL; in [10] it was over 50 µg/mL; in assay [12], 9.46 µg/mL; in assay [13], over 50 µg/mL; in assay [15], 13.9 µg/mL; in assay [16], over 50 µg/mL. This substance yielded an IC50 (µg/ml), pseudovirus neutralization in assay [18] of over 50 µg/mL. The results for the neutralization IC50 in assay [5] and in assay [14] were 34.1 µg/mL and over 50 µg/mL, respectively. Further, the half-inhibitory concentration (IC50) in [9], in assay [11] and in assay [17] was over 50 µg/mL throughout.

Take 5145_B14 (PGT-127) (antibody): the Fold IC50 increase relative to wild-type (pseudovirus neutralization) in [24] was 1.2 fold; in [33], 2.5 fold. For the same substance, the IC50, pseudovirus neutralization in assay [25] is over 50 µg/mL; in assay [26], 21.5 µg/mL; in assay [27] it was 0.01 µg/mL; in assay [28] it was over 50 µg/mL; in assay [31] it was 0.012 µg/mL; in assay [32] it was over 50 µg/mL. Besides, the IC50 (µg/mL), pseudovirus neutralization in assay [29] was 3.59 µg/mL; in assay [30] it was over 50 µg/mL.

In the case of 1443_C16 (PG16) (TCN-116) (antibody), the IC50 (µg/ml), pseudovirus neutralization is 6.98 µg/mL in assay [1]; over 50 µg/mL in [2]; over 50 µg/mL in assay [3]; 2.65 µg/mL in [4]; 0.03 µg/mL in assay [6]; over 50 µg/mL in [7]. The IC50 (µg/ml), pseudovirus neutralization in assay [8] worked out at 0.002 µg/mL; in assay [10], 0.22 µg/mL; in assay [12], 0.002 µg/mL; in [13], 6.13 µg/mL; in [15], 0.09 µg/mL; in assay [16] it was 1.16 µg/mL. Further, in [18], the IC50 (µg/ml), pseudovirus neutralization came out at 3.25 µg/mL. Also, the neutralization IC50 is 0.102 µg/mL in [5] and over 50 µg/mL in assay [14]. Besides, the figures for the IC50 in [9], in assay [11] and in [17] were 0.01 µg/mL, 0.27 µg/mL and 0.01 µg/mL, respectively.

In the case of PGV04 (antibody), the IC50 (µg/mL), pseudovirus neutralization in assay [23] amounted to 0.569 µg/mL.

With 1495_C14 (PGC14) (antibody), the IC50 (µg/ml), pseudovirus neutralization in [1], in assay [2], in [3], in assay [4], in assay [6] and in [7] was over 50 µg/mL each time. Also, the IC50 (µg/ml), pseudovirus neutralization in assay [8] is over 50 µg/mL; in [10], over 50 µg/mL; in [12], 37 µg/mL; in assay [13], over 50 µg/mL; in [15] it was over 50 µg/mL; in assay [16], over 50 µg/mL. The substance further displayed an IC50 (µg/ml), pseudovirus neutralization in [18] of over 50 µg/mL. Further, the neutralization IC50 in [5] and in assay [14] was over 50 µg/mL each time. Also, the half-maximal inhibitory concentration (IC50) in assay [9], in assay [11] and in [17] was over 50 µg/mL each time.

Consider 2G12 (antibody), for which the IC50 (µg/ml), pseudovirus neutralization in [1] is over 50 µg/mL; in assay [2] it was over 50 µg/mL; in assay [3], 13.8 µg/mL; in assay [4], over 50 µg/mL; in assay [6], 0.69 µg/mL; in [7], over 50 µg/mL. The IC50 (µg/ml), pseudovirus neutralization in assay [8] was over 50 µg/mL; in assay [10], 0.29 µg/mL; in assay [12], 22.5 µg/mL; in [13] it was 7.22 µg/mL; in assay [15], over 50 µg/mL; in assay [16] it was over 50 µg/mL. In addition, the IC50 (µg/ml), pseudovirus neutralization in assay [18] is over 50 µg/mL. Besides, the neutralization IC50 in assay [5] and in assay [14] was over 50 µg/mL each time. Also, the IC50 in assay [9] and in [11] was over 50 µg/mL in each case.

On to 2F5 (antibody), for which the IC50 (µg/ml), pseudovirus neutralization is 9.65 µg/mL in assay [1]; over 50 µg/mL in [2]; 15.7 µg/mL in [3]; 7.37 µg/mL in assay [4]; 0.75 µg/mL in assay [6]; 7.21 µg/mL in assay [7]. Further, the IC50 (µg/ml), pseudovirus neutralization is over 50 µg/mL in [8]; over 50 µg/mL in [10]; 10.4 µg/mL in assay [12]; over 50 µg/mL in [13]; over 50 µg/mL in assay [15]; over 50 µg/mL in [16]. This substance also showed an IC50 (µg/ml), pseudovirus neutralization in [18] of over 50 µg/mL. For the same substance, the values for the neutralization IC50 in assay [5] and in assay [14] were over 50 µg/mL and 11.8 µg/mL, respectively. In addition, the half-maximal inhibitory concentration (IC50) is 15.1 µg/mL in [9], 1.1 µg/mL in assay [11] and 14.6 µg/mL in [17].

As a reminder, the IC50 is the concentration at which inhibition is half-maximal. A higher IC50 goes with weaker potency.
